According to US20200270360A1 (ANGIEX, published 2020):
Numbering of substitutions follows the chain as printed.

T1: human TM4SF1 (transmembrane-4 L six family member-1) (human, UniProt P30408 1-202)
T1 construct: also called hTM4SF1
T1 sequence: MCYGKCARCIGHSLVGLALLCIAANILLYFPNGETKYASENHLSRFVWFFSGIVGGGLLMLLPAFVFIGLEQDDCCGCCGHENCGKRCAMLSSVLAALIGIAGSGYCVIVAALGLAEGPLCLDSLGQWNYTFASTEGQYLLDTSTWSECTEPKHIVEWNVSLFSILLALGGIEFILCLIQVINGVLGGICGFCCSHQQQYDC

B1: humanized AGX-A01 (antibody, human IgG1, kappa, V domains shown)
VH: EVQLVESGGGLVKPGGSLRLSCAASGFTFSSFAMSWVRQAPGKGLEWVSTISSGSIYIYYTDGVKGRFTISRDNAKNSLYLQMNSLRAEDTAVYYCARRGIYYGYDGYAMDYWGQGTLVTVSS
VL: AIVLTQSPGTLSLSPGERATLSCRSSQSLVHSNGNTYLHWYMQKPGQAPRVLIYKVSNRFSGIPDRFSGSGSGTDFTLTISRLEPDDFAIYYCSQSTHIPLAFGQGTKLEIKR
notes: also called h AGX-A01 H1L10; h AGX-A01
B2: humanized mutated (hm) AGX-A07 H2L5 V1 (antibody, human IgG1, kappa, V domains shown)
VH: EVQLVQSGAEVKKPGASVKVSCKASGYTFTNYGVKWVRQAPGQGLEWMGWINTYTGNPIYAADFKGRVTMTTDTSTSTAYMELRSLRSDDTAVYYCVRFQYGDYRYFDVWGQGTLVTVSS
VL: EIVLTQSPATLSLSPGERATLSCRANSGISFINWYQQKPGQAPRLLIYGTANLASGIPARFSGSGSGRDFTLTISSLEPEDFAVYYCQQWSSNPLTFGGGTKVEIKR
notes: Full heavy and light chains
B3: humanized mutated (hm) AGX-A07 H2L5 V3 (antibody, human IgG1, kappa, V domains shown)
VH: B2 VH
VL: B2 VL with W90Y
notes: Full heavy and light chains
B4: humanized AGX-A07 H2L5 (antibody, human IgG1, kappa, V domains shown)
VH: B2 VH with E1Q, G44D, Y80F
VL: B2 VL with V3I, S62G
notes: Full heavy and light chains; also called h AGX-A07 H2L5; hAGX-A07 H2L5
B5: humanized mutated (hm) AGX-A07 H2L5 V4 (antibody, human IgG1, kappa, V domains shown)
VH: B2 VH
VL: B2 VL with N26Q, W90Y
notes: Full heavy and light chains; also called hm AGX-A07 V4
B6: humanized mutated (hm) AGX-A07 H2L5 V2 (antibody, human IgG1, kappa, V domains shown)
VH: B2 VH
VL: B2 VL with N26Q
notes: Full heavy and light chains; also called AGX-A07 H2v1L5v2
B7: anti-TM4SF1 antibody AGX-A01 (antibody, V domains shown)
VH: EVILVESGGGLVKPGGSLKLSCAASGFTFSSFAMSWVRQTPEKRLEWVATISSGSIYIYYTDGVKGRFTISRDNAKNTVHLQMSSLRSEDTAMYYCARRGIYYGYDGYAMDYWGQGTSVTVS
VL: AVVMTQTPLSLPVSLGDQASISCRSSQSLVHSNGNTYLHWYMQKPGQSPKVLIYKVSNRFSGVPDRFSGSGSGTDFTLKISRVEADDLGIYFCSQSTHIPLAFGAGTKLELK
notes: also called 8G4; AGX-01

biological target: T1, human TM4SF1 (transmembrane-4 L six …); assay: flow cytometry (MFI) on HUVEC

Binder	EC50
B1	3.03 nM
B2	1.58 nM
B3	4.19 nM
B4	1.53 nM
B5	46.1 nM
B6	1.64 nM

biological target: T1, human TM4SF1 (transmembrane-4 L six …); assay: flow cytometry on MDA-MB-468 and HLMEC cells

Binder	concentration that saturates cell surface TM4SF1 binding
B7	10 µg/mL
